Patent US20250101091A1 (Eli Lilly, published 2025)

Columns and labels:
Cleaved rat epiregulin [1] = molecular target: T1, Cleaved rat epiregulin (rat, UniProt Q9Z0L5 56-101); assay: cell-based or functional assay
Cleaved rat epiregulin [2] = molecular target: T1, Cleaved rat epiregulin; assay: MSD-SET solution equilibrium titration, 37 C, pH 6.0
Protocol: (§1) An MSD SI6000 instrument (Meso Scale Discovery, Rockville, MD) is used for reading MSD plates. MSD assay plates are prepared as follows. A multi-array 96-well plate (Meso Scale Discovery, P/N L15XA-3) is coated overnight at 2-8° C. with 30 μl of a 1 μg/ml solution of a monomeric Fc-human epiregulin fusion in PBS. Plates are washed 3× in PBST following coating, then blocked for 1 hour at room temperature with shaking in 3% Blocker A (diluted in PBS from 5% Blocker A, Meso Scale Discovery, P/N R93AA-1).
(§2) SET samples are prepared in 1% Blocker A at pH 6.0 and at pH 7.4. Antibody is diluted to either 20 and 200 μM (pH 7.4) or 200 μM and 2 nM (pH 6.0). Epiregulin is serially diluted for a total of 12 dilutions centered around 2× the antibody concentration. This is accomplished by using starting concentrations of 10 and 100 nM (pH 7.4) or 100 nM and 1000 nM (pH 6.0) which are then 10× diluted once, 2× serially diluted 9 times, and then 10× diluted for the final dilution. Epiregulin titrations and fixed concentration antibody solutions are combined 1:1 to prepare the SET solutions. SET solutions are incubated at 37° C. for approximately 96 hours to allow binding to reach equilibrium. […] The plate is then washed 3× with PBST, then 100 μl of 1× Read Buffer T (diluted in water from 4× Read Buffer T, Meso Scale Discovery, P/N R93AA-1) is added before reading the plate. […]

Amphiregulin = molecular target: T2, Amphiregulin (human, UniProt P15514 101-198); assay: ELISA: biotinylated ligand (20 nM) captured on neutravidin plate, antibody titrated 1:3, anti-human kappa-AP detection, OD405 [panel A]
T2 construct: Bought reagent, biotinylated in the ELISA; also called AREG
T2 sequence (looked up): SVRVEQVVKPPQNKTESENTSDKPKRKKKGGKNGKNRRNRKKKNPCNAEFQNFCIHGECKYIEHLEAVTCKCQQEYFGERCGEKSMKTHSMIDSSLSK
Protocol: (§3) ELISA assays can be run as follows. […] After blocking, plates are washed 3 times with PBS plus 0.05% Tween20 to remove residual blocking buffer. […] Ligands are transferred to blocked assay plate and incubated at room temperature for 1 hour. The assay plate is washed 3 times with PBS plus 0.05% Tween20. […] The assay plate is washed 3 times with PBS plus 0.05% Tween20. […] The assay plate is washed 3 times with PBS plus 0.05% Tween20.

human Epigen = molecular target: T3, human Epigen (human, UniProt Q6UW88 53-104, limits assumed); assay: as above
T3 construct: Bought reagent, biotinylated in the ELISA; also called EPGN
Protocol: as §3

TGFα = molecular target: T4, TGFα (human, UniProt P01135 40-89); assay: as above
T4 construct: Bought reagent, biotinylated in the ELISA; also called TGFA; transforming growth factor alpha
Protocol: as §3

EGF = molecular target: T5, EGF (human, UniProt P01133 971-1023); assay: as above
T5 construct: Bought reagent, biotinylated in the ELISA; also called epidermal growth factor
Protocol: as §3

HB-EGF = molecular target: T6, HB-EGF (human, UniProt Q99075 63-148); assay: as above
T6 construct: Bought reagent, biotinylated in the ELISA
Protocol: as §3

Betacellulin = molecular target: T7, Betacellulin (human, UniProt P35070 32-111); assay: as above
T7 construct: Bought reagent, biotinylated in the ELISA; also called BTC
T7 sequence (looked up): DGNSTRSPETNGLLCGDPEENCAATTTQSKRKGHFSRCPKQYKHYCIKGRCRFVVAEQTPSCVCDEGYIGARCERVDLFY
Protocol: as §3

Cleaved rat epiregulin [3] = molecular target: T1, Cleaved rat epiregulin; assay: MSD-SET solution equilibrium titration, 37 C, pH 7.4
Protocol: as §1, §2

IC50, neutralization of epiregulin induced luciferase reporter activity in C166-AP1-Luciferase cells (Cleaved rat epiregulin [1]): 2.5 nM | Kd (Cleaved rat epiregulin [2]): 0.286 nM | binding result (Amphiregulin): no binding (tested: 10 ug/mL) | binding result (human Epigen): no binding (tested: 10 ug/mL) | binding result (TGFα): no binding (tested: 10 ug/mL) | binding result (EGF): no binding (tested: 10 ug/mL) | binding result (HB-EGF): no binding (tested: 10 ug/mL) | binding result (Betacellulin): no binding (tested: 10 ug/mL) | Kd (Cleaved rat epiregulin [3]): 0.0302 nM
B1: Antibody 1 (antibody, human IgG4 S228P, kappa, F234A L235A, V domains shown)
VH: QVQLQESGPGLVKPSETLSLTCTVSGGSISSYYWSWIRQPAGKGLEWIGRIYPSGNTNYNPSLKSRVTISVDTSKNQFSLKLSSVTAADTAVYYCARGGLVMDVWGQGTLVTVSS
VL: EIVLTQSPGTLSLSPGERATLSCRASQSVEFSYLAWYQQKPGQAPRLLIYGASSRATGIPDRFSGSGSGTDFTLTISRLEPEDFAVYYCHQYGTNPFTFGQGTKVEIKR
notes: Fully human IgG4 (S228P, F234A/L235A by EU index, C-terminal Lys deleted), kappa light chain
